Results as given in IntAct's records for PubMed 9422512.

Biological target: wasp_human WAS (UniProt P42768)
Sequence (P42768 whole entry): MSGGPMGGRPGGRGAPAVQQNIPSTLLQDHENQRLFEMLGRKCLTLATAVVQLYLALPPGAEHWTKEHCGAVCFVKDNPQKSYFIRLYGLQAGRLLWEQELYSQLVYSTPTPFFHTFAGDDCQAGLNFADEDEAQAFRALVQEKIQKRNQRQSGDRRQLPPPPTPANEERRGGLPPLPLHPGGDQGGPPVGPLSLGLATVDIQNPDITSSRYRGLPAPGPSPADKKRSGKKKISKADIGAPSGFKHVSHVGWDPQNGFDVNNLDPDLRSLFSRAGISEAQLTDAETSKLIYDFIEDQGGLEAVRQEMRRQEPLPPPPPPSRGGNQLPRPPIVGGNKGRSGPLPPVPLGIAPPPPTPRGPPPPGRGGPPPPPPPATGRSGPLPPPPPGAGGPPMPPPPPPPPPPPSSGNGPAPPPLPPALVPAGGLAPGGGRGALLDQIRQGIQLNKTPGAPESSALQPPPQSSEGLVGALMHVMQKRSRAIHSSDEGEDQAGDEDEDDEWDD

Chain of Cell division control protein 42 homolog (Homo sapiens), P60953 Y40C (P60953 whole entry Y40C): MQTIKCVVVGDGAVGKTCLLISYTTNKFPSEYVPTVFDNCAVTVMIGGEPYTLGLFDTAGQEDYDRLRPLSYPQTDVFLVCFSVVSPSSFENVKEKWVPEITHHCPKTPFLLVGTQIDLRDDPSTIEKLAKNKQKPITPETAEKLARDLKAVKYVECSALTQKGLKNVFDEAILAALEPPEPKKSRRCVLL

- effect of a mutation on the interaction: disrupting interaction
Substance: Cell division control protein 42 homolog (Homo sapiens), P60953 Y40C
